# T1: Rhesus D antigen (human, UniProt Q02161 2-417)
# T1 construct: whole, on cells; Presented on RhD-positive erythrocytes in all assays; also called RhD; RhD antigen
# T1 sequence (looked up): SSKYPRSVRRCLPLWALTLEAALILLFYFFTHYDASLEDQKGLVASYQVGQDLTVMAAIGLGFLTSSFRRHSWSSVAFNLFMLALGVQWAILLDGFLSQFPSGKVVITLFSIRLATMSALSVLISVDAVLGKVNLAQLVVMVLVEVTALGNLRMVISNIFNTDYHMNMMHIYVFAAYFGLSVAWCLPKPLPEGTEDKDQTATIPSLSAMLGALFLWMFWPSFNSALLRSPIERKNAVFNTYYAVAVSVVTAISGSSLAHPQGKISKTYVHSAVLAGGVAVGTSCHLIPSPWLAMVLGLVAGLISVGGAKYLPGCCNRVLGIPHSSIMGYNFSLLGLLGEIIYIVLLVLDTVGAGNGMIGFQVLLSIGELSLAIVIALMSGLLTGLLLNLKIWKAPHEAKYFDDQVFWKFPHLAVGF
# Target: T1, Rhesus D antigen
# Assay: agglutination assay, Fab on RhD(+)/RhD(-) RBC mix
# Protocol: After each round of panning single colonies were picked for analysis of their binding properties to red blood cells in agglutination assays. Briefly, single colonies were inoculated into 2×YT/100 μg/mL carbenicillin/1% glucose and shaken overnight at 37° C. The next day, DeepWell plates were inoculated using 900 μl 2×YT/100 μg/mL carbenicillin/0.1% glucose and 10 μl overnight culture. The plates were shaken for two hours at 37° C., before Fab induction was performed with addition of 300 μl 2×YT/100 μg/mL carbenicillin/0.25 mM IPTG per well. The plate was shaken overnight at 30° C. The following day, the bacteria were pelleted by centrifugation (3200×g, 4° C., 10 minutes), and re-suspended in 100 μl of 0.8 M NaCl, 0.2×PBS, 8 mM EDTA, and incubated for 15 minutes on ice in order to perform a periplasmic extraction of the Fab fragments. The plate was transferred to −20° C. and finally the suspension was thawed and centrifugation was performed for 10 minutes at 4° C. and 3200×g. The periplasmic extract was used in ELISA assays for analysis of Fab content and in agglutination assays to evaluate the binding potential of the individual Fab fragments. The agglutination assay was performed as follows: RhD(−) and RhD(+) RBC were mixed in a 1:1 ratio, and washed 3 times in PBS. After the final wash, the cell mix was re-suspended in 1% BSA in PBS at a density of 1% cells, 50 μl was added to each well of a 96-plate. Periplasmic extracts were added to the wells. As a positive control Rhesogamma P immunoglobulin (Aventis) was used according to the manufacturer's instructions. The plates were incubated for one hour at room temperature with gentle shaking. The cells were washed three times with PBS, before the secondary antibody was added (goat anti-human Fab/FITC conjugate, Sigma F5512) in a 1:100 dilution. The plates were left for agglutination for one hour at room temperature without shaking. Fab fragments positive in the agglutination assay was determined by visual inspection, and recorded by taking a picture. Quantization of the binding activity of the Fab fragments was performed by FACS analysis of the agglutination samples.
row,binding result,Binder
1,binds,"RhD192.119G06 (Fab, V domains shown, Tested as Fab (periplasmic extract)) VH: QVQLVESGGGLVKPGGSLRLSCAASGFTFSSYAMNWVRQAPGKGLEWVSSISGTSSYIYYADSVKGRFTIFRDNAKSSVYLQMNSLRVEDTAVYYCARDRWWGMVRRVFPTYPFDYWGQGTLVTVSS VL: DIQLTQSPSSVSASVGDRVTITCRASQGINNLLAWYQQKPGKAPKLLIYAASNLQSGVPSRFSGSGSGTDFTLTINSLQPEDFATYYCQQANSFPLTFGGGTKVEIKR"
2,binds,"RhD297.126E06 (Fab, V domains shown, Tested as Fab (periplasmic extract)) VH: QVQLVESGGGVVQPGRSLRLSCAASGFTFRTYGMHWVRQAPGKGLEWVAVIWYDGSNKDYADSVKGRFTISRDNSKNTLHLQMNSLRAEDTAVYYCAREIASRGYSRYLYYLDFWGQGTLVTVSS VL: DIQLTQSPSSLSASVGDRVTITCRASQSISSYLNWYQQNPGKAPKLLIYGASNLQSGVPSRFSGSGSGTDFTLTISSLQPEDFATYYCQQSYSTLALTFGGGTKVEIKR"
3,binds,"RhD191.119E08 (Fab, V domains shown, Tested as Fab (periplasmic extract)) VH: QVQLVESGGDLVQPGGSLRLSCAASGFTFRSYEMNWVRQAPGKGLEWVSYINSRGNTKYYADSVKGRFTISRDNAKKSLYLQMSSLRAEDTAVYYCARNLFGDYDLKSYYYNAMDVWGQGTLVTVSS VL: EIVLTQSPGTLSSSPGERATLSCRASQSVTSRYLAWYQQKHGQAPRLLIYGTSTRATGIPDRFSGGGSQTDFTLTISRLEPEDFAVYYCQHYDDSISTYIFGPGTELEIKR"
4,binds,"RhD194.126G10 (Fab, V domains shown, Tested as Fab (periplasmic extract)) VH: QVTLKESGPVLVKPTETLTLTCTVSGFSLSNARMGVSWIRQPPGKALEWLAHIFSNDEKSYSTSLKSRLTISKDTSKSQVVLTMTNMDPVDTATYYCARMRLTMVRGVITYYYYSMDVWGQGTTVTVSS VL: DIQMTQSPSSLSASVGDRVTITCRASQSISTYLNWYQQKPGKAPKLLIYAASTLQSGVPSRFSGSGSGTHFTLTISSLQREDFATYYCQQTYRTPTWTFGQGTKVEIKR"
5,binds,"RhD207.127A11 (Fab, V domains shown, Tested as Fab (periplasmic extract)) VH: EVQLVESGGGVVQPGRSLRLSCAASGFTFSSYGMHWVRQAPGKGLEWVAVIWYDGSNKDYVDSVKGRFTISRDNSKNTLYLQMNSLRAEDTAVYYCARELAKGRLRDLDHWGQGTLVTVSS VL: QAVVTQEPSLTVSPGGTVTLTCASSTGAVTTGYYPNWFQQKPGQAPRALVHSTSKKHSWTPARFSGSLLGGKAALTLSGVQPEDEAEYYCLLFYGGAQLGVFGGGTKLTVLG"

# Second part, the binder before the results:
row,Binder,binding result
1,"RhD193.126G05 (Fab, V domains shown, Tested as Fab (periplasmic extract)) VH: QVQLVETGGGVVQPGRSLRLSCAASGFTFSSYGMHWVRQAPGKGLEWVAVIWYDGSNKDYADPVKGRFTISRDNSKNTLYLQMNSLRAEDTAVYYCAREIASRGYSRYLYYFDSWGQGTLVTVSS VL: DIQMTQSPSSLSASVGDRVTITCRASQSISSYLNWYQQNPGKAPKLLIYGASNLQSGVPSRFSGSGSGTDFTLTISSLQPEDFATYYCQQSYSTLALTFGGGTKVEIKR",binds
2,"RhD190.119F05 (Fab, V domains shown, Tested as Fab (periplasmic extract)) VH: EVQLVETGGGVVQPGRSLRLSCAASGFSFSNYGMHWVRQAPGKGLEWVAVIWFDGSIKYYVDSVKGRFTISRDNSKNTLYLQMNSLRAEETAIYFCARENSVLVPGTIRRRYYLDYWGQGTLVTVSS VL: DIQLTQSPSSLSASVGDRVTITCRASQSISSYLNWYQQKPGEAPKLLIYVASTLQSGAPSRFSGSGSGTDYTLTISSLQPEDSATFYCQQTYSPPYTFGQGTKLEIKR",binds
3,"RhD197.127A08 (Fab, V domains shown, Tested as Fab (periplasmic extract); lambda clone) VH: QVQLVESGGGVVQPGRSLRLSCAASGFTFSNYGMHWVRQAPGKGLEWVAVIWFDGSNRDYADSVKGRFTISRDNSKKTLYLQMNSLRAEDTAVYYCATELARGRLRALEYWGQGTLVTVSS VL: QTVVTQEPSLTVSPGGTVTLTCASSTGAVTTGYYPNWFQQKPGQAPRALIYSTSKKHSWTPARFSGSLLGGKAALTLSGVQPEDEAEYYCLLFYGGAQLGVFGGGTKLTVLG",binds
